Measurements: patent US20250215091A1, “Anti-GAL3 Antibodies and Compositions” (Les Laboratoires Servier, priority 2022, published 2025)

B1: anti-Gal3 antibody H10 (antibody, V domains shown)
VH: EVQLVESGGSLVKPGGSLRLSCAASGFTFSNYYMNWVRQAPGKGLEWISYINGASRDISYADFVKGRFTISRDNAKNSLYLQMNSLRAEDTAVYYCVRSSYGYSNYGSGMDVWGRGTLVTVSS
VL: QSVLTQPASVSGSPGQSITISCAGTSSDVGGSYNVAWYQQHPGKAPKLMIYNDANRPSGVSNRFSGSKSGNTASLTISGLQAEDEADYYCSSNTADSTRVFGGGTKLEIK
B2: H10: anti-Gal3 monoclonal antibody, IgG1 format; VH SEQ ID NO 44, VL SEQ ID NO 45 (antibody, V domains shown)
VH: B1 VH
VL: B1 VL

What was measured:
[1] = biological target: T1, full length mouse Galectin-3 (mouse, UniProt P16110 2-264); assay: ratio of the ELISA EC50 values on Hu-Gal3-FL and m-Gal3-FL
T1 construct: Printed as 'full length'; recombinant, immobilized through a histidine tag; also called m-Gal3-FL; murine Gal3
Experimental: (§1) To determine the half maximal effective concentration (EC50) of the antibodies, ELISA dose-response experiments were performed on Hu-Gal3-FL and on m-Gal3-FL.
(§2) Hu-Gal3-FL and m-Gal3-FL were immobilized at 3 μg/mL through their His-tag on functionalized microplates as before. A 3.3-fold serial dilution was carried-out with the purified IgGs, added to the wells containing immobilized Hu-Gal3-FL or m-Gal3-FL and detected with an anti-Fab.HRP antibody.

[2] = biological target: T2, CRD domain of human Galectin-3 (human, UniProt P17931 106-250); assay: SPR single-cycle kinetics, captured antibody, Gal3-CRD 0.5-50 nM
T2 construct: Histidine-tagged; also called hu-Gal3-CRD; Hu-Gal3-CRD
Experimental: (§3) The CM5 sensor surface was first immobilized with an anti-human Fc mAb using a standard protocol. The entire sensor surface was first activated by injecting a 1:1 (v/v) mixture of 400 mM EDC and 100 mM NHS at a flow rate of 10 μL/minute for 7 minutes. Monoclonal anti-human Fc antibody (Millipore AP113), 25 μg/mL in Na acetate pH5, 360 s were flowed at 10 μL/minute to reach 10000 RU on both flow cells followed by the injection of 1 M ethanolamine, pH8.5 for 7 minutes at a flow rate of 10 μL/minute. During the entire immobilization procedure, HBS-P was used as the running buffer.
(§4) Antibody samples were prepared at 5 μg/ml and were injected for 30 seconds at 10 μL/minute. In general, 400 to 680 resonance units of antibodies were captured on the chip.
(§5) Kd values were also determined by SPR using […] kinetics analysis. A total of 5 concentrations of Gal3 CRD domain from human, dog, rat and cynomolgus (Novalix) [0.5-50] nM were injected over the antibody capture surfaces for 210 seconds followed by a dissociation phase of 600 seconds at 30 μL/minute. At the end of each cycle, capture surfaces were regenerated by 2 injections of glycine pH 1.5, for 30 seconds at 10 μL/minute, followed by an extra wash with glycine pH 1.5. Fresh antibody was captured at the beginning of each cycle.

Gal3 CRD domain from dog = biological target: T3, Gal3 CRD domain from dog (dog, UniProt P38486 152-296, limits assumed); assay: as above
T3 construct: domain: CRD domain; also called dog Gal3-CRD
T3 sequence (looked up): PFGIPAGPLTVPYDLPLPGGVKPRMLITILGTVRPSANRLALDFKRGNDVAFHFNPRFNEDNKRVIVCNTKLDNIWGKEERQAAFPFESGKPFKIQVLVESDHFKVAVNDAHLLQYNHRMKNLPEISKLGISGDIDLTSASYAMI
Experimental: as §3, §4, §5

Gal3 CRD domain from rat = biological target: T4, Gal3 CRD domain from rat (rat, UniProt P08699 118-262, limits assumed); assay: as above
T4 construct: domain: CRD domain; also called rat Gal3-CRD
T4 sequence (looked up): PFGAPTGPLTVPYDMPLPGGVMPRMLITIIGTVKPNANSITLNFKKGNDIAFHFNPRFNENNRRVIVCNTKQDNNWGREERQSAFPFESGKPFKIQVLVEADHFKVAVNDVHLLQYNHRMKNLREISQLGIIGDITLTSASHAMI
Experimental: as §3, §4, §5

[3] = biological target: T5, Gal3 CRD domain from cynomolgus (cynomolgus, UniProt A0A7N9CYL1 103-247); assay: as above
T5 construct: domain: CRD domain; also called cynomolgus Gal3-CRD
Experimental: as §3, §4, §5

[4] = biological target: T2, CRD domain of human Galectin-3; assay: competitive ELISA, inhibition of ASF binding to immobilized Hu-Gal3-CRD
Experimental: The inhibitory properties and IC50 of the anti-Gal3 antibodies were determined in an ELISA competitive assay by measuring the binding of ASF to immobilized CRD domain of human Gal3 in absence or presence of the antibodies at different concentrations.
The inhibition assay was performed on Hu-Gal3-CRD which was immobilized at 1 μg/mL through its His-tag on functionalized microplates. A 2-fold or 3-fold serial dilution was carried-out with the purified IgGs and added to the wells with immobilized Hu-Gal3-CRD. ASF (A1908-Sigma reference) was added at 8 μg/mL in each well with or without IgGs. ASF binding to Hu-Gal3-CRD was detected with the HRP-labeled anti-ASF sheep antibody. IC50 were estimated according to the model equation Y=Bottom+(Top−Bottom)/(1+(X/IC50)). Indicative maximal percentages of inhibition were obtained with the formula: 100%−(((mean of bottom plateau values of IgGs)×100%)/mean of irrelevant IgG values)

[5] = biological target: T1, full length mouse Galectin-3; assay: dose-response ELISA on immobilized m-Gal3-FL, IgG
Experimental: as §1, §2

[6] = biological target: T1, full length mouse Galectin-3; assay: SPR Biacore T-200, antibody captured by anti-human Fc, Gal3 in solution
Experimental: as §3, §4

[7] = biological target: T6, full length human Galectin-3 (human, UniProt P17931 2-250); assay: as above
T6 construct: Printed as 'full length'; recombinant, immobilized through a histidine tag; also called hu-Gal3-FL; Hu-Gal3-FL
Experimental: as §3, §4

[8] = biological target: T6, full length human Galectin-3; assay: dose-response ELISA on immobilized Hu-Gal3-FL, IgG
Experimental: as §1, §2

[9] = biological target: T7, human full-length Galectin-1 (human, UniProt P09382 2-135); assay: ELISA on immobilised antigen (3 µg/mL), purified IgG at 15-20 µg/mL, anti-Fab.HRP, OD 450 nm
T7 construct: full-length; Histidine-tagged; also called Hu-Gall; Gall
Experimental: (§6) IgG specificity to Gal3 was tested by checking the absence of binding on human Gall and Gal7 by ELISA.
(§7) Hu-Gall and Hu-Gal7 were immobilized at 3 μg/mL. Purified IgGs were added into the wells (15-20 μg/mL final concentration) and detected with an anti-Fab.HRP antibody. Rabbit antibodies directed against Gall (Abcam ab25138 reference) and Gal7 (Abcam ab108623 reference) were used at 5 μg/mL as antigen-coating positive controls and detected with an anti-rabbit.HRP secondary antibody (7074S-Cell Signaling reference).

[10] = biological target: T8, human full-length Galectin-7 (human, UniProt P47929 1-136); assay: as above
T8 construct: full-length; Histidine-tagged; also called Hu-Gal7; Gal7
Experimental: as §6, §7

rat model of ARDS [11] = assay: Rat ARDS model (LPS challenge): total BALF protein (BCA assay); type: in vivo; details: antibodies 14 mg/kg x3 prior to LPS; dexamethasone 10 mg/kg oral; vs LPS group; FIG. 17
Experimental: (§8) Positive control rats received 3 doses of sterile phosphate buffer at day minus 11, minus 6 and minus 1 prior LPS challenge (0.25 mg/kg by subcutaneous route at day 1). Negative control rats received one oral dose of Dexamethasone at 10 mg/kg (dissolved in 0.5% carboxymethyl cellulose in deionized water) 2 hours prior LPS challenge (0.25 mg/kg by subcutaneous route at day 1). LPS (lipopolysaccharide) causes an acute inflammatory response, whereas dexamethasone has anti-inflammatory effects thus being the reference treatment in this model.
(§9) Antibody-treated rats received 3 doses of antibodies (14 mg/kg) at day minus 11, minus 6 and minus 1 prior to LPS challenge (0.25 mg/kg by subcutaneous route at day 1). Each antibody was solubilized in sterile PBS before injection.
(§10) Control rats of the experiment received 3 doses of sterile phosphate buffer at day minus 11, minus 6 and minus 1 without LPS challenge at day 1.
The impact of anti-Gal3 antibody treatment in LPS challenged rats were evaluated by quantification of proteins (by BCA assay) in BALF and compared to the positive control group (LPS challenge with PBS treatment) (FIG. 17). The presence of protein in BALF reflects the damage to the air-blood barrier. […] Total BALF protein numeration levels were decreased after treatment with anti-inflammatory dexamethasone.

[12] = tested on: murine model of HOCI-induced fibrosis; assay: HOCI-induced murine fibrosis model: skin thickness; type: in vivo, mice; details: second experiment, sustained effect until day 63
Experimental: In a first experiment, control mice (n=12) received a daily intradermal injection of 300 μL of sterile phosphate buffer saline (PBS) for 5 consecutive days per week, for a duration of 42 days. HOCI alone and HOCI with antibody (HOCI-antibody) treated mice (n=12 per group) received a daily intradermal injection of 300 μL of HOCI for 5 consecutive days per week, for a duration of 42 days. Antibody-treated mice also received a subcutaneous injection of 20 mg/kg antibody, starting at day minus one and every 5 days between day 5 and day 40. Each antibody was solubilized in sterile, endotoxin-free PBS before injection. In a second experiment, the same protocol was applied, except that duration of the study was 63 days and antibodies were given every 7 days starting at day minus 1 until day 62.
Mice that received daily injection of HOCI were also treated by intratracheal instillation of 0.5 mg/kg of TD139 compound (HOCI-TD139), a small molecule Gal3 inhibitor. In a first experiment, the administrations started from day 21 and the compound was given every 3 days until day 39. In a second experiment, the administrations started from day 20 and the compound was given every 3 days until day 62. TD139 was initially dissolved in 100% DMSO then diluted 50-fold in endotoxin-free PBS before administration.
The evolution of skin thickness was monitored by using an external caliper, every seven days until sacrifice.

plasma TNF alpha = assay: Rat ARDS model (LPS challenge): plasma TNF alpha (MSD); type: in vivo; details: 4 h following LPS challenge; vs LPS group; FIG. 18
Experimental: as §8, §9, §10
For all rats, plasma sampling was performed 4 h following LPS challenge.
The impact of anti-Gal3 antibody treatment in LPS challenged rats were evaluated on plasma cytokine levels, namely TNF alpha and KC-GRO cytokines, and compared to the positive control group (LPS challenge with PBS treatment) (respectively FIG. 18A and FIG. 18B). TNF alpha and KC-GRO were quantified by using the MSD technology from Mesoscale.

rat model of ARDS [13] = assay: Rat ARDS model (LPS challenge): neutrophils counts in BALF; type: in vivo; details: antibodies 14 mg/kg x3 prior to LPS; dexamethasone 10 mg/kg oral; vs LPS group; FIG. 16
Experimental: as §8, §9, §10
The impact of anti-Gal3 antibody treatment in LPS challenged rats were evaluated by quantification of neutrophils in Bronchoalveolar Lavage Fluid and compared to the positive control group (LPS challenge with PBS treatment) (FIG. 16). […] Neutrophils numeration levels were decreased after treatment with anti-inflammatory dexamethasone.

T1 sequence (P16110 2-264 limits assumed): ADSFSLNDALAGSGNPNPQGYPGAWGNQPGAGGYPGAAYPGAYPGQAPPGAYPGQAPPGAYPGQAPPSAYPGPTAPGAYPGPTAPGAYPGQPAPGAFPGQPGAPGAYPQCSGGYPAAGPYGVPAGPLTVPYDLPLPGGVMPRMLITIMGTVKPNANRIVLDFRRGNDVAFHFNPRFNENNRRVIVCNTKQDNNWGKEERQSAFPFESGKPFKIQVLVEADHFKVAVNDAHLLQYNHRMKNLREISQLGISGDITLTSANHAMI
T2 sequence (P17931 106-250 limits assumed): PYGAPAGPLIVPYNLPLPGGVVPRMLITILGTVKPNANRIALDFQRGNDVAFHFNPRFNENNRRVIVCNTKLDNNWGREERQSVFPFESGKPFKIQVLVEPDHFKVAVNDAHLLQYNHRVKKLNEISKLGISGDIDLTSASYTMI
T6 sequence (P17931 2-250 limits assumed): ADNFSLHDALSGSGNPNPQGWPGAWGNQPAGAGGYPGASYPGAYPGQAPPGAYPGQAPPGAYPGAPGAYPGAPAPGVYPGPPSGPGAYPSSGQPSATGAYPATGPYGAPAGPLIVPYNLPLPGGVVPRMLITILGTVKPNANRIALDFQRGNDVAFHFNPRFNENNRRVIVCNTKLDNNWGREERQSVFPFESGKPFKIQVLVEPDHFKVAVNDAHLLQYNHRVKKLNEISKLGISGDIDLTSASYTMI
T8 sequence (P47929 whole entry): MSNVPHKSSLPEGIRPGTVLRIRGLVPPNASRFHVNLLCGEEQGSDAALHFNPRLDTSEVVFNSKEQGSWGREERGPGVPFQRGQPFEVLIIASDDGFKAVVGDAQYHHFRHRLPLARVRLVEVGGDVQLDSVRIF
T7 sequence (P09382 2-135 limits assumed): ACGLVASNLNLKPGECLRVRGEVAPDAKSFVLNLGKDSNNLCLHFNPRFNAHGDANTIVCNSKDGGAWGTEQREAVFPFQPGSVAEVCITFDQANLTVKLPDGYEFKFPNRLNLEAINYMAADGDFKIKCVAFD

Row | Molecule | Ratio (Human/mouse Gal3 EC50 ratio) [1] | Kd [2] [nM] | Kd (Gal3 CRD domain from dog) [nM] | Kd (Gal3 CRD domain from rat) [nM] | Kd [3] [nM] | IC50 [4] [nM] | Max % inhibition [4] [%] | EC50 [5] [nM] | Kd [6] [nM] | Kd [7] [nM] | EC50 [8] [nM] | binding result [9] | binding result [10] | total BALF protein (rat model of ARDS [11]) | HOCI-induced increase in skin thickness ([12]; 63 days, antibody 20 mg/kg s.c. every 7 days, FIG. 7B) | day from which reduction of skin thickness was significant [12] [days] | TNF alpha plasma levels (plasma TNF alpha) | neutrophils counts in BALF (rat model of ARDS [13])
1 | B1 | 30 | 8.2 | 24 | 12 | 5.6 | 2.7 | 89 | 5.9 | 2.72 | 4.5 | 0.2 | no binding (tested: 15-20 µg/mL) | no binding (tested: 15-20 µg/mL) | – | – | – | – | –
2 | B2 | – | – | – | – | – | – | – | – | – | – | – | – | – | also decreased | significantly reduced | 14 | also decreased, displaying an intermediary profile | also decreased
